Assay results from the supplement of paper PMC9170038.

System: MS2 coat protein
Experiment: apparent KD of MS2 coat protein; higher = weaker reporter binding
Conditions: Eterna round: R107
Outline: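 In 100 mM Tris-HCl pH 7.5 with 80 mM KCl and 4 mM MgCl2, and without or with constant ligand, SNAP-549-labelled MS2 coat protein was titrated in twofold steps from 0.7 or 1.5 nM to 3 µM. Per-step times went from 0.8–1.5 h down to 10–20 min. The RNA switches were transcribed on-chip from Illumina sequencing clusters, and apparent KD is the per-design median of normalised cluster binding-curve fits.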

[1] = input ligand: theophylline 20 uM
[2] = input ligand: theophylline 2 mM
[3] = input ligand: tryptophan 2.4 mM

| Sequence | apparent KD of MS2 coat protein (input ligand: arginine 13.2 mM) [nM] | apparent KD of MS2 coat protein (input ligand: none) [nM] | apparent KD of MS2 coat protein [1] [nM] | apparent KD of MS2 coat protein [2] [nM] | apparent KD of MS2 coat protein [3] [nM] |
| --- | --- | --- | --- | --- | --- |
| GAACAAGGUUUCUUGUUCGGUCGCUGAGAAGGAGCGCGGUAACCCGCAGGUAGGUCGCUCAGAAAUACAUGAGGAUCACCCAUGU [Anaa] | 17.4 | 18.7 | 26.4 | 21.7 | 17.8 |
| GAAUCUACAAACGAUACCAGAUCCGGCUGCCACAUGAGGAUCACCCAUGUCUAGCGACUCAUCCCUUGGCAGCGUGUGCAUCCCG [theeternabot_sameState_MS2_Theo_B_37] | 147 | – | 612 | – | 629 |
| GAAUUAUGACGUGAUACCAGUGGUCAAUACUGGGAACUUAACAUGAGGAUCACCCAUGUCCACCCUUGGCAGCACGCUGACAAUC [theeternabot_exclusion_MS2_Theo_B_14] | 43.5 | – | 133 | – | 79.6 |
| GACCUUGCCUGAAGGAGCGAGGUAAAUAGGGUUGAGCAUACAUGAGGAUCACCCAUGUGGCCUCAGGUAGGUCGCAGGUAGGACA [Exclusion Arginine B GF30] | 97.1 | 114 | 224 | 189 | 114 |
| GACCUUGCGGGCGCCCGCAAGGUCGCGGAUACCAGCGAGGUCCAUCGCCCUUGGCAGCCGAACAUGAGGAUCACCCAUGUCGGUU [Same State - Theophylline A Attempt #5 (HarryS)] | 8.39 | – | 12.8 | – | 11 |
| GACGGCUCGACGGCCGCCACUCCCUCCGACUGAAGGCACAGUGGACAUGAGGAUCACCCAUGUCCGAGGACCGGGUCGAUCCUGG [theeternabot_sameState_MS2_Trp_B_32] | 14.5 | – | 19.3 | 18.3 | – |
| GAGAGUGUGUGCGAAAGCACAGAUCUGGAAGGAGCGUAGAAAGAUACAGGUAGGUCGCCGGGACAUGAGGAUCACCCAUGUGUAU [ArgiA-ms2@63] | 38.9 | 37.7 | 52.6 | 35.8 | 34.2 |
| GAGCACAUGAGGAUCACCCAUGUUGGCACACGAGGACCGGUACGGCCGCCACUCGCGGCGGGAAUAACUUUGCGCAGAUGAUGGG [theeternabot_sameState_MS2_Trp_A_50] | 27.5 | 23.9 | 37.5 | 23.7 | 21.4 |
| GAGCGCGUGGACUGGCGUGCUCCGCUCCGUCGAGGACCGGUACGGCCGCCACUCGACAUGAGGAUCACCCAUGUGUGCGCUCGCG [#1 Exclusion - Tryptophan A Attempt #19 (HarryS)] | 32.9 | – | 210 | 317 | – |
| GAGCUGAUGUAGGCCGGAUAUCCGGGAGAUACCAGUACAGAAAUGUACCCUUGGCAGCUCUUUCUUACAUGAGGAUCACCCAUGU [Ex Theophylline A 27] | 11.5 | 13.1 | 15.4 | 19.1 | 13.4 |
| GAUCAAAGAUCACAUGAGGAUCACCCAUGUCGAGGACCGGUACGGCCGCCACUCGCGGCGGUGAAAAUAGAUACAAAGUAUCUAU [Ex_TrypA - ViennaApproves] | 40.1 | – | 83.9 | 86.1 | – |
| GAUCUGUCGGGUGAUACCAGCCUCGGCGCGUCUCGCGCUGAACAUGAGGAUCACCCAUGUGGCCCUUGGCAGCACAUGACAAAUC [Ditere] | 189 | – | 488 | – | 598 |
| GAUGAACUAUUUGAUACCAGACUACAUGAGGAUCACCCAUGUGAGUUUAUACUUCUGUCAGUCCCUUGGCAGCAAAUAGUUUAUC [XTheo B #5] | 21.5 | – | 27.8 | – | 16.4 |
| GCAAAGUGAUCGGCCGCCACUGCAAUGCUUAAUGGAGGUCCACAUGAGGAUCACCCAUGUCUUCCCAGGACCGGGAUCUCGAGUU [theeternabot_sameState_MS2_Trp_B_3] | 59 | – | 65.5 | 72.6 | – |
| GCAACGCUGUCGGCCGCCACUUUUACAUUGGCCGUGCUGUCUCUACAUGAGGAUCACCCAUGUGGAAGGACCGGGACAGCACACU [Arzaleer] | 21.2 | – | 39.6 | 44.7 | – |
| GCAAUACAUGAGGAUCACCCAUGUGCAGAUACCAGAGGUGUAUGCCUCCCUUGGCAGCUGCGACGCUCUGGCAUCUUGUGGGAUG [Same State Theophylline A GF19] | 22.2 | – | 73.7 | – | 52 |
| GCACAAGAUGGAAGGAGCGCUGGAAAAGGUCACAUGAGGAUCACCCAUGUUCUCCUAACCGAGCAGGUAGGUCGCCAUCUUGUGC [SSAB NP+V+V2 #1] | 24 | 23.7 | 25.6 | 29.8 | 25.9 |
| GCACAUGAGGAUCACCCAUGUAUUACUGAAGGAGCGAGACAGAACUCAGGUAGGUCGCAGACGGCGGAAUCGCCGACGACAUGGG [Exclusion Arginine A GF23] | 20.3 | 36.7 | 66.5 | 40.7 | 27.7 |
| GCACCAGGUACGGAUACCAGCUGCCAGCGUUACAUGAGGAUCACCCAUGUGAUCUGAAGUAGCCCUUGGCAGCUGUACCUGGUGC [SSThB NP+V+V2 #4 +-Same Structure] | 96.7 | – | 207 | – | 62 |

| Sequence | apparent KD of MS2 coat protein (input ligand: arginine 13.2 mM) [nM] | apparent KD of MS2 coat protein (input ligand: none) [nM] | apparent KD of MS2 coat protein [1] [nM] | apparent KD of MS2 coat protein [2] [nM] | apparent KD of MS2 coat protein [3] [nM] |
| --- | --- | --- | --- | --- | --- |
| GCACGACAUGAGGAUCACCCAUGUGCAGAUACCAGUAAUGUAUAUUACCCUUGGCAGCUGAGUAGGUCUGGAGGGCUAUAGGUAA [Same State Theophylline A GF11] | 11.6 | 12.3 | 20.6 | 15.4 | 14.6 |
| GCAUCCUAGUCGGCCGCCACUGCAUCACCGGUCCUAGGUGAUCAACAUGAGGAUCACCCAUGUAGCAGGACCGGGACUAGGAUGC [(Trp1)-(MT)''-(MT)'-(Ms2)-(Trp2)_Design2] | 345 | 491 | 320 | 636 | 19.9 |
| GCAUCCUAGUCGGCCGCCACUGCAUGUAGAUACCUGCUACAUGAACAUGAGGAUCACCCAUGUAGCAGGACCGGGACUAGGAUGC [(Trp1)-(MT)''-(MT)'-(Ms2)-(Trp2)_Design1] | 47.4 | 58.8 | 63.6 | 69.4 | 15.5 |
| GCAUUACAUGAGGAUCACCCAUGUCUAGAUACCAGAUUUGUUUGAAUCCCUUGGCAGCUAGUGGACCACCGUACACGACAUACUA [theeternabot_sameState_MS2_Theo_A_17] | 29.8 | – | 47.1 | – | 44 |
| GCCAAAGGCUACAUGAGGAUCACCCAUGUACGAGGACCGGUACGGCCGCCACUCGUACGGCCUCCUACUGGACGGGAAACCGUCG [ETA NP+V+V2 #28] | 13.1 | 20.6 | 34.1 | 28 | 33.2 |
| GCCGCCGGUGCUUCAUUCCCUGAGCGACGGCGAGGACCGGUACGGCCGCCACUCGGCUCGGUACAUGAGGAUCACCCAUGUCUUU [theeternabot_exclusion_MS2_Trp_A_11] | 30.7 | – | 58.4 | 60.8 | – |
| GCCGGACUUUCGGCCGCCACUGAGAGAGUCGUGUGAACAUGAGGAUCACCCAUGUAAUAUAUAUACAGGACCGGGAGGGUCCGGC [4.T] | 12.3 | 12.1 | 18.3 | 12.7 | 10.2 |
| GCUACAUGAGGAUCACCCAUGUAUGCGAGCCGAGGACCGGUACGGCCGCCACUCGCUUAACAUGAGGAUCACCCAUGUUGCUCGC [SSTA DOUBLE!!! :-D #18] | 19.7 | – | 36.2 | 28.1 | – |
| GCUAGGUCAUCGGCCGCCACUAACGAUGGCUCCGACAUGAGGAUCACCCAUGUGCCACUUGCGCAUAGGACCGGGAUGACCUAGC [SSTB NP+V+V2 #1] | 17.7 | 15 | 24.3 | 17.2 | 11.5 |
| GCUGAACAUGAGGAUCACCCAUGUCCGGAUACCAGCGGACCUCAUCGCCCUUGGCAGCCGAACCAACAGCUUGUGGUGUUCACUC [theeternabot_sameState_MS2_Theo_A_10] | 32.2 | – | 58.2 | – | 37.2 |
| GCUGUAAGUGCAGAUACCAGCAUGUUAUAUUUCUAAUGACAUGAGGAUCACCCAUGUAAAUGCCCUUGGCAGCUGCACUUACAGC [SSTHB #6] | 15.6 | – | 21.4 | – | 18.7 |
| GCUGUACCAUGAAGGAGCGUCGUUGAUUGAGAAUACACAUGAGGAUCACCCAUGUUUUUAUGACAGGUAGGUCGCAUGGUACAGC [SSAB #16] | 13.8 | 12.9 | 25.1 | 18.9 | 12.1 |
| GCUUGGGUGGCACAGCACUGGCAGUGCGAUACCAGCACGGUAACGUGCCCUUGGCAGCGCACAUGAGGAUCACCCAUGUGGUGCG [#1 Exclusion - Theophylline A Attempt #26 (HarryS)] | 18.8 | 24.4 | 66.9 | 275 | 26 |
| GCUUGGGUGGCACGGCCCUGGCGGUGCGAUACCAGCACGGUAACGUGCCCUUGGCAGCGCACAUGAGGAUCACCCAUGUGGUGCG [#1 Exclusion - Theophylline A Attempt #24 (HarryS)] | 13.1 | 15.6 | 21.9 | 185 | 13.7 |
| GGACCAUGGAGCGAUACCAGCUUGAGUGUACUGGCCAGGUACAUGAGGAUCACCCAUGUAAGCCCUUGGCAGCGCUCCAUGGUCC [#1 Exclusion - Theophylline B Attempt #25 (HarryS)] | 8.38 | 9.95 | 14.7 | 30.8 | 12.3 |
| GGACUAACCUGAAGGAGCGACGCGCAGAAACUGCAAUUUCCUCCACACGAGGAUCACCCGUGUCAGGUAGGUCGCAGGUUAGUCG [ArgBX 29] | 13.1 | 14.1 | 18.3 | 15.4 | 15.3 |
| GGACUAACUGGAAGGAGCGACACGCAGAAACUGCAAUUUCCUCCACACGAGGAUCACCCGUGUCAGGUAGGUCGCCAGUUAGUCG [ArgBX 29] | 31.3 | 39.1 | 52 | 57 | 40.9 |
| GGAGGUACCCGAAGGAGCGACAUGAGGAUCACCCAUGUCUCCCGUUAUGGGAGUUCCUUAGGUCAGGUAGGUCGCGGGUACCUCC [#1 Exclusion - Arginine B Attempt #1 (Inspired by Omei)] | 92.7 | 124 | 162 | 128 | 109 |
